Measurements published in PMC9214875.

B1: MerTK: N294Q (protein)
parent chain: MGPAPLPLLLGLFLPALWRRAITEAREEAKPYPLFPGPFPGSLQTDHTPLLSLPHASGYQPALMFSPTQPGRPHTGNVAIPQVTSVESKPLPPLAFKHTVGHIILSEHKGVKFNCSISVPNIYQDTTISWWKDGKELLGAHHAITQFYPDDEVTAIIASFSITSVQRSDNGSYICKMKINNEEIVSDPIYIEVQGLPHFTKQPESMNVTRNTAFNLTCQAVGPPEPVNIFWVQNSSRVNEQPEKSPSVLTVPGLTEMAVFSCEAHNDKGLTVSKGVQINIKAIPSPPTEVSIRNSTAHSILISWVPGFDGYSPFRNCSIQVKEADPLSNGSVMIFNTSALPHLYQIKQLQALANYSIGVSCMNEIGWSAVSPWILASTTEGAPSVAPLNVTVFLNESSDNVDIRWMKPPTKQQDGELVGYRISHVWQSAGISKELLEEVGQNGSRARISVQVHNATCTVRIAAVTRGGVGPFSDPVKIFIPAHGWVDYAPSSTPAPGNADPVLIIFGCFCGFILIGLILYISLAIRKRVQETKFGNAFTEEDSELVVNYIAKKSFCRRAIELTLHSLGVSEELQNKLEDVVIDRNLLILGKILGEGEFGSVMEGNLKQEDGTSLKVAVKTMKLDNSSQREIEEFLSEAACMKDFSHPNVIRLLGVCIEMSSQGIPKPMVILPFMKYGDLHTYLLYSRLETGPKHIPLQTLLKFMVDIALGMEYLSNRNFLHRDLAARNCMLRDDMTVCVADFGLSKKIYSGDYYRQGRIAKMPVKWIAIESLADRVYTSKSDVWAFGVTMWEIATRGMTPYPGVQNHEMYDYLLHGHRLKQPEDCLDELYEIMYSCWRTDPLDRPTFSVLRLQLEKLLESLPDVRNQADVIYVNTQLLESSEGLAQGSTLAPLDLNIDPDSIIASCTPRAAISVVTAEVHDSKPHEGRYILNGGSEEWEDLTSAPSAAVTAEKNSVLPGERLVRNGVSWSHSSMLPLGSSLPDELLFADDSSEGSEVLM
B2: MerTK: N454Q (protein)
parent chain: B1 parent chain
B3: MerTK: TM (protein)
parent chain: B1 parent chain
B4: MerTK: glucose deprivation (protein)
parent chain: B1 parent chain

How the values were obtained:
[1] = Blue Native PAGE, MHCC97H and HCCLM3; details: glycan lost; control: wild type
[2] = cycloheximide chase, Western blot, MHCC97H; details: glycan lost; control: wild type (G-MerTK)
[3] = nuclear/cytoplasmic fractionation, Western blot, LO2 and MHCC97H; details: glycan lost; control: wild type
[4] = MG132 rescue of MerTK level, Western blot; details: glycan lost; control: no TM
[5] = Blue Native PAGE, endogenous MerTK, MHCC97H; details: glycan lost; control: untreated / with glucose
[6] = MerTK IP, anti-ubiquitin blot, MHCC97H and HCCLM3; details: glycan lost; control: untreated
[7] = nuclear/cytoplasmic fractionation, Western blot, MHCC97H; details: glycan lost; control: untreated

| Protein | oligomerisation [1] | degradation_or_half_life [2] | localisation_or_trafficking [3] | degradation_or_half_life [4] | oligomerisation [5] | other: ubiquitination [6] | localisation_or_trafficking [7] |
| --- | --- | --- | --- | --- | --- | --- | --- |
| B1 | decreases | decreases | increases |  |  |  |  |
| B2 | decreases | decreases | increases |  |  |  |  |
| B3 |  |  |  | decreases | abolishes | increases | increases |
| B4 |  |  |  |  | abolishes |  |  |
